These are literature values, as cited in publication PMC8634938.

For one data set, the target named is IL-22R (Homo sapiens) (UniProt Q8N6P7).
A further data set has as its target IL-22BP (Homo sapiens) (UniProt Q969J5).
Sequence of UniProt Q969J5 (Q969J5 22-263): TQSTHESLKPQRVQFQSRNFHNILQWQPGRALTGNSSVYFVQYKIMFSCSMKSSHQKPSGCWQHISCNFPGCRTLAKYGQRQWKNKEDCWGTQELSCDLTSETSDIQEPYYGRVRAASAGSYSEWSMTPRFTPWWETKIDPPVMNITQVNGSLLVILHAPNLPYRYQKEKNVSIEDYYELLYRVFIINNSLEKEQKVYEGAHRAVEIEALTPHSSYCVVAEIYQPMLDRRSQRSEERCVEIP

Sequence of UniProt Q8N6P7 (Q8N6P7 16-228): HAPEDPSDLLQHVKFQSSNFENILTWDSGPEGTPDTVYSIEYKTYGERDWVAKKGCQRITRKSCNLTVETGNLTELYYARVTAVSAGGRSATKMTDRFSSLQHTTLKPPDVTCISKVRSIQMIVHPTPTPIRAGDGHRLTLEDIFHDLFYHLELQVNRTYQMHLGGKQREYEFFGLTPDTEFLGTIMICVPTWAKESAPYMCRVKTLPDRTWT

Turning to IL-22 (from UniProt Q9GZX6), the dissociation constant Kd in the data set with IL-22R (Homo sapiens) is 20 nM; with IL-22BP (Homo sapiens), 0.001 nM.

Broadly, the Kd is the constant that tells how readily two partners part at equilibrium.
